According to US20240200091A1, “USE OF PROTOPORPHYRINOGEN OXIDASE” (BEIJING DABEINONG BIOTECHNOLOGY CO., LTD., priority 2021, published 2024):

B1: PPO8A: nucleotide sequence encoding microbial protoporphyrinogen oxidase PPO8 (SEQ ID NO:8), Arabidopsis thaliana/soybean common codon usage bias (nucleic acid)
DNA: ATGTCAAATGAGACACAAGCCAAACAAGCTGAAACGAAACAGACTGAGTCTTCTGTCGTAAGCAAAACGCTGGTGTTGTACTCGTCCGTCGATGGTCAAACCTTAAAGATCATTAATCGTATTAAGCAGACCCTGACAGGAGAAGTTATTGTTTTGAATGTTGATGATAATCCAACTATCGATTTTAGCCTTTATCAGAAGGTCTTGATTGGAGCATCAATCCGGTATGGGAACTTTAGACCGAACATCATAAAGTTTGTTAATCAGCATAAAACACAACTTGACGCGGTGTGCAACGCTTTCTTCGTGGTTTGTCTCACAGCAAGAAAACCAGAGAAAGCTGTTCCTGAAAACAATGCATACATGAAGAAATTTGATCAGCTAAGTCAATGGCAACCTCAGTTCAAGGGAGTATTCGCGGGTGCTTTATTGTATTCACGATACAACTGGTGGCAGACACTTCTCATACAACTAATAATGAAGATGACTGGTGGCAGTACTGACAAAACTCAAGATATTGAGCTTACCGATTGGGAAAAGGTGGATTCTTTCGCACAAGACTTTGCTGCCAGGTGA
modifications: The nucleotide sequence of PPO8A
B2: PPO2A: nucleotide sequence encoding microbial protoporphyrinogen oxidase PPO2 (SEQ ID NO:2), Arabidopsis thaliana/soybean common codon usage bias (nucleic acid)
DNA: ATGAGAGCCTTGCTTCTCTACAGCAGTCAAGAAGGGCAGACAAGAAAAATCATTCAGAGAATAGCAGCTCAAATGCCTGAGTACACTTGTGAAGTTCAAGATTTGCATCAATCAATAGATATTGATTGGGCCGAGTATGACAAAGTTTTAATTGGTGCATCCATCCGGTATGGACGTTTGAACCCTGCACTTTACAGGTTCATTGAGCATCACCTCGTTGGTTTGACCTCAAGGAAGGCTGCTTTCTTCTGCGTAAATCTTACCGCAAGGAAAGAACAACAAGGGAAAGACACTCCACAGGGCTCTGCATATATTCAAACATTTTTGAAGAAGAGTGCTTGGCAACCCGAAAGGATTGCTGTTTTTGCTGGTGCCCTTTATTATCCAAGATACAGATGGTTTGATAAGATGATGATCCGACTCATCATGACGTTAACTGGAGGAGAAACTGATACATCTCAGGAGGTGGAATATACAAACTGGGATAAAGTCGTGAAGTTTGCAGAGCAGTTTCGGAATTGGTGA
modifications: PPO2A Nucleotide Sequence

What was measured:
Type in all cases: in vivo
[1] = test system: Arabidopsis thaliana T1 plants; assay: oxyfluorfen tolerance of transgenic Arabidopsis thaliana T1 plants (spray, grade of pesticide damage); conditions: 7 DAT, number of plants of 24 per genotype, grades
Text: (§1) The transformed Arabidopsis thaliana T1 plants were initially selected using glufosinate herbicide. The Arabidopsis thaliana T1 plants (PPO1A) into which the PPO1A nucleotide sequence was introduced, the Arabidopsis thaliana T1 plants (PPO2A) into which the PPO2A nucleotide sequence was introduced, the Arabidopsis thaliana T1 plants (PPO3A) into which the PPO3A nucleotide sequence was introduced, the Arabidopsis thaliana T1 plants (PPO4A) into which the PPO4A nucleotide sequence was introduced, the Arabidopsis thaliana T1 plants (PPO5A) into which the PPO5A nucleotide sequence was introduced, the Arabidopsis thaliana T1 plants (PPO6A) into which the PPO6A nucleotide sequence was introduced, the Arabidopsis thaliana T1 plants (PPO7A) into which the PPO7A nucleotide sequence was introduced, the Arabidopsis thaliana T1 plants (PPO8A) into which the PPO8A nucleotide sequence was introduced, the Arabidopsis thaliana T1 plants (PPO9A) into which the PPO9A nucleotide sequence was introduced, the Arabidopsis thaliana T1 plants (PPO10A) into which the […] nucleotide sequence was introduced, the Arabidopsis thaliana T1 plants (PPO11A) into which the PPO11A nucleotide sequence was introduced, the Arabidopsis thaliana T1 plants (PPO12A) into which the PPO12A nucleotide sequence was introduced, the Arabidopsis thaliana T1 plants (PPO13A) into which the PPO13A nucleotide sequence was introduced, the Arabidopsis thaliana T1 plants (PPO14A) into which the PPO14A nucleotide sequence was introduced, the Arabidopsis thaliana T1 plants (PPO-ATA) into which the PPO-ATA nucleotide sequence was introduced, the Arabidopsis thaliana T1 plants (PPO-APA) into which the PPO-APA nucleotide sequence was introduced, the Arabidopsis thaliana T1 plants (control vector) into which the control vector was introduced, and the wild-type Arabidopsis thaliana plants (CK) (with 24 plants being included in each genotype) (18 days after sowing) were sprayed with oxyfluorfen at three concentrations (180 g ai/ha (one-fold field concentration, 1×), 720 g ai/ha (four-fold field concentration, 4×), and 0 g ai/ha (water, 0×)), saflufenacil at three concentrations (25 g ai/ha (one-fold field concentration, 1×), 100 g ai/ha (four-fold field concentration, 4×), and 0 g ai/ha (water, 0×)), flumioxazin at three concentrations (60 g ai/ha (one-fold field concentration, 1×), 240 g ai/ha (four-fold field concentration, 4×), and 0 g ai/ha (water, 0×), and sulfentrazone at three concentrations (450 g ai/ha (one-fold field concentration, 1×), 900 g ai/ha (two-fold field concentration, 2×), and 0 g ai/ha (water, 0×) to determine the tolerance of Arabidopsis thaliana to the herbicides. After 7 days of spraying (7 DAT), the damage level of each plant caused by the herbicide was evaluated according to the average of the damage levels (%) of plants (the average of the damage levels (%) of plants=the injured leaf area/the total leaf area×[…]), i.e., the grade of pesticide damage: grade 0 means that the growth status of plants is essentially consistent with those sprayed with the blank solvent (water); grade 1 means that the average of the damage levels of plants is less than 10%; grade 2 means that the average of the damage levels of plants is greater than […]; and grade 3 means that the average of the damage levels of plants is 100%. The plants having a growth status falling within grades 0 and 1 are classified as highly resistant plants; those having a growth status falling within grade 2 are classified as poorly resistant plants; and those having a growth status falling within grade 3 are classified as non-resistant plants.

[2] = test system: Arabidopsis thaliana T1 plants; assay: saflufenacil tolerance of transgenic Arabidopsis thaliana T1 plants (spray, grade of pesticide damage); conditions: for The grade of pesticide damage/plant: grade 0 / The grade of pesticide damage/plant: grade 1 / The grade of pesticide damage/plant: grade 2 / The grade of pesticide damage/plant: grade 3: 7 DAT, number of plants of 24 per genotype, grades
Text: as §1

[3] = test system: Arabidopsis thaliana T1 plants; assay: flumioxazin tolerance of transgenic Arabidopsis thaliana T1 plants (spray, grade of pesticide damage); conditions: 7 DAT, number of plants of 24 per genotype, grades
Text: as §1

[4] = test system: Arabidopsis thaliana T1 plants; assay: sulfentrazone tolerance of transgenic Arabidopsis thaliana T1 plants (spray, grade of pesticide damage); conditions: 7 DAT, number of plants of 24 per genotype, grades
Text: as §1

[5] = saflufenacil at four-fold field concentration, of 24 plants

Molecule	The grade of pesticide damage/plant: grade 0 ([1]; oxyfluorfen 180 g ai/ha (1×))	The grade of pesticide damage/plant: grade 1 ([1]; oxyfluorfen 180 g ai/ha (1×))	The grade of pesticide damage/plant: grade 2 ([1]; oxyfluorfen 180 g ai/ha (1×))	The grade of pesticide damage/plant: grade 3 ([1]; oxyfluorfen 180 g ai/ha (1×))	The grade of pesticide damage/plant: grade 0 ([1]; oxyfluorfen 720 g ai/ha (4×))	The grade of pesticide damage/plant: grade 1 ([1]; oxyfluorfen 720 g ai/ha (4×))	The grade of pesticide damage/plant: grade 2 ([1]; oxyfluorfen 720 g ai/ha (4×))	The grade of pesticide damage/plant: grade 3 ([1]; oxyfluorfen 720 g ai/ha (4×))	The grade of pesticide damage/plant: grade 0 ([2]; saflufenacil 25 g ai/ha (1×))	The grade of pesticide damage/plant: grade 1 ([2]; saflufenacil 25 g ai/ha (1×))	The grade of pesticide damage/plant: grade 2 ([2]; saflufenacil 25 g ai/ha (1×))	The grade of pesticide damage/plant: grade 3 ([2]; saflufenacil 25 g ai/ha (1×))	The grade of pesticide damage/plant: grade 0 ([2]; saflufenacil 100 g ai/ha (4×))	The grade of pesticide damage/plant: grade 1 ([2]; saflufenacil 100 g ai/ha (4×))	The grade of pesticide damage/plant: grade 2 ([2]; saflufenacil 100 g ai/ha (4×))	The grade of pesticide damage/plant: grade 3 ([2]; saflufenacil 100 g ai/ha (4×))	The grade of pesticide damage/plant: grade 0 ([3]; flumioxazin 60 g ai/ha (1×))	The grade of pesticide damage/plant: grade 1 ([3]; flumioxazin 60 g ai/ha (1×))	The grade of pesticide damage/plant: grade 2 ([3]; flumioxazin 60 g ai/ha (1×))	The grade of pesticide damage/plant: grade 3 ([3]; flumioxazin 60 g ai/ha (1×))	also measured
B1	24 plant	0 plant	0 plant	0 plant	20 plant	4 plant	0 plant	0 plant	24 plant	0 plant	0 plant	0 plant	8 plant	14 plant	2 plant	0 plant	24 plant	0 plant	0 plant	0 plant	plants that exhibited high-resistant tolerance [2, 5]: 22 plants; plants that exhibited moderate- or poor-resistant tolerance [2, 5]: 2 plants; The grade of pesticide damage/plant: grade 0 ([3]; flumioxazin 240 g ai/ha (4×)): 23 plant; The grade of pesticide damage/plant: grade 1 ([3]; flumioxazin 240 g ai/ha (4×)): 1 plant; The grade of pesticide damage/plant: grade 2 ([3]; flumioxazin 240 g ai/ha (4×)): 0 plant; The grade of pesticide damage/plant: grade 3 ([3]; flumioxazin 240 g ai/ha (4×)): 0 plant; The grade of pesticide: grade 0 ([4]; sulfentrazone 450 g ai/ha (1×)): 24; The grade of pesticide: grade 1 ([4]; sulfentrazone 450 g ai/ha (1×)): 0; The grade of pesticide: grade 2 ([4]; sulfentrazone 450 g ai/ha (1×)): 0; The grade of pesticide: grade 3 ([4]; sulfentrazone 450 g ai/ha (1×)): 0; The grade of pesticide: grade 0 ([4]; sulfentrazone 900 g ai/ha (2×)): 22; The grade of pesticide: grade 1 ([4]; sulfentrazone 900 g ai/ha (2×)): 2; The grade of pesticide: grade 2 ([4]; sulfentrazone 900 g ai/ha (2×)): 0; The grade of pesticide: grade 3 ([4]; sulfentrazone 900 g ai/ha (2×)): 0
B2	24 plant	0 plant	0 plant	0 plant	20 plant	4 plant	0 plant	0 plant	24 plant	0 plant	0 plant	0 plant	6 plant	18 plant	0 plant	0 plant	24 plant	0 plant	0 plant	0 plant	The grade of pesticide damage/plant: grade 0 ([3]; flumioxazin 240 g ai/ha (4×)): 24 plant; The grade of pesticide damage/plant: grade 1 ([3]; flumioxazin 240 g ai/ha (4×)): 0 plant; The grade of pesticide damage/plant: grade 2 ([3]; flumioxazin 240 g ai/ha (4×)): 0 plant; The grade of pesticide damage/plant: grade 3 ([3]; flumioxazin 240 g ai/ha (4×)): 0 plant; The grade of pesticide: grade 0 ([4]; sulfentrazone 450 g ai/ha (1×)): 24; The grade of pesticide: grade 1 ([4]; sulfentrazone 450 g ai/ha (1×)): 0; The grade of pesticide: grade 2 ([4]; sulfentrazone 450 g ai/ha (1×)): 0; The grade of pesticide: grade 3 ([4]; sulfentrazone 450 g ai/ha (1×)): 0; The grade of pesticide: grade 0 ([4]; sulfentrazone 900 g ai/ha (2×)): 20; The grade of pesticide: grade 1 ([4]; sulfentrazone 900 g ai/ha (2×)): 4; The grade of pesticide: grade 2 ([4]; sulfentrazone 900 g ai/ha (2×)): 0; The grade of pesticide: grade 3 ([4]; sulfentrazone 900 g ai/ha (2×)): 0
